Target: amyloid precursor protein (APP), endogenous mouse (mouse (endogenous in mouse brain and primary neurons))
Test: co-IP

decrease in APP-Dab1 co-precipitation against control, 20 min of Reelin: 89 % decrease
decrease in APP-Dab1 co-precipitation against control, 1 hr of Reelin: 87 % decrease
decrease in APP-Dab1 co-precipitation against control, 4 hrs of Reelin: 67 % decrease
B1: Disabled1 (Dab1), endogenous mouse (natural protein)
chain: MSTETELQVAVKTSAKKDSRKKGQDRSEATLIKRFKGEGVRYKAKLIGIDEVSAARGDKLCQDSMMKLKGVVAGARSKGEHKQKIFLTISFGGIKIFDEKTGALQHHHAVHEISYIAKDITDHRAFGYVCGKEGNHRFVAIKTAQAAEPVILDLRDLFQLIYELKQREELEKKAQKDKQCEQAVYQTILEEDVEDPVYQYIVFEAGHEPIRDPETEENIYQVPTSQKKEGVYDVPKSQPNSQPLEDFESRFAAATPNRNLSMDFDELLEATKVSAVTQLELFGDMSTPPDITSPPTPATPGDAFLPSSSQTLPGSADVFGSMSFGTAAVPSGYVAMGAVLPSFWGQQPLVQQQIAMGAQPPVAQVIPGAQPIAWGQPGLFPATQQAWPTVAGQFPPAAFMPTQTVMPLAAAMFQGPLTPLATVPGTNDSARSSPQSDKPRQKMGKESFKDFQMVQPPPVPSRKPDQPSLTCTSEAFSSYFNKVGVAQDTDDCDDFDISQLNLTPVTSTTPSTNSPPTPAPRQSSPSKSSASHVSDPTADDIFEEGFESPSKSEEQEAPDGSQASSTSDPFGEPSGEPSGDNISPQDGS

Source: article PMC3155659
